ChEMBL document CHEMBL1121725, “Interaction of 1-(5-phospho-beta-D-arabinofuranosyl)-5-substituted-uracils with thymidylate synthetase: mechanism-based inhibition by 1-(5-phospho-beta-D-arabinosyl)-5-fluorouracil” (J Med Chem, 1981)

Molecular target: thymidylate synthase (Lactobacillus casei)
Assay: Compound was evaluated for the inhibition of dTMP synthetase with respect to dUMP.

B1: Thymidylate synthase (Escherichia coli), C3SWJ7 (protein)
chain: MKQYLELMQKVLDEGTQKNDRTGTGTLSIFGHQMRFNLQDGFPLVTTKRCHLRSIIHELLWFLQGDTNIAYLHENNVTIWDEWADENGDLGPVYGKQWRAWPTPDGRHIDQITTVLNQLKNDPDSRRIIVSAWNVGELDKMALAPCHAFFQFYVADGKLSCQLYQRSCDVFLGLPFNIASYALLVHMMAQQCDLEVGDFVWIGGDTHLYSNHMDQTHLQLSREPRPLPKLIIKRKPESIFDYRFEDFEIEGYDPHPGIKAPVAI
  Km: 2 µM
